Reference: PMC7503452

Assays:
Test in all cases: fluorescence anisotropy
A3H Hap I K117E/K121E = A3H Hap I K117E/K121E (human, UniProt Q6NTF7 1-200, K117E;K121E)
A3H Hap I K117E = A3H Hap I K117E (human, UniProt Q6NTF7 1-200, K117E)
A3H Hap II = A3H Hap II (human, UniProt Q6NTF7 1-181, G105R;K121D;E178D)
A3H Hap VII = A3H Hap VII (human, UniProt Q6NTF7 1-200, G105R)
Chain of A3H Hap VII (Q6NTF7 whole entry G105R): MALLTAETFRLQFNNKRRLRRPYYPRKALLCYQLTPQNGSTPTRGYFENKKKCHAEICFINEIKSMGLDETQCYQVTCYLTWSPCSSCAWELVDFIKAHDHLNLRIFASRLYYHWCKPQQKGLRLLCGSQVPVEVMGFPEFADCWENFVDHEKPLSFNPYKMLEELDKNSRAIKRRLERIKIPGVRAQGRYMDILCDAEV

Chain of A3H Hap I K117E (Q6NTF7 whole entry K117E): as the sequence (Q6NTF7 whole entry G105R) above, with R105G, K117E counted along it
Chain of A3H Hap II (Q6NTF7 1-181 G105R/K121D/E178D): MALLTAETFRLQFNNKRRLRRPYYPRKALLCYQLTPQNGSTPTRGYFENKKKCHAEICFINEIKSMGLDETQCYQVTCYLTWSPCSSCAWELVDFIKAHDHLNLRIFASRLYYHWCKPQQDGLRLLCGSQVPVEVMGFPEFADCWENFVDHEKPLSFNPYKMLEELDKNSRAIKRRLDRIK
Chain of A3H Hap I K117E/K121E (Q6NTF7 whole entry K117E/K121E): as the sequence (Q6NTF7 whole entry G105R) above, with R105G, K117E, K121E counted along it

B1: 118-nt ssDNA (ssDNA)
DNA: GAATATAGTTTTTAGCTCAAAGTAAGTGAAGATAATTTAGAGAGTTGTAATGTGATATATGTGTATGAAAGATATAAGACTCAAAGTGAAAAGTTGTTAATGTGTGTAGATATGTTAA
modifications: internal fluorescein-dT at position 37
Work on B1 yielded a Kd (A3H Hap I K117E/K121E) of 1.24 ± 0.088 µM, a Kd (A3H Hap I K117E) of 3 ± 1.77 µM and a Kd (A3H Hap II) of 0.492 ± 0.028 µM. It also gave a Kd (A3H Hap VII) of 0.522 ± 0.004 µM.
